Source: paper PMC8863222

Molecular target: recombinant equine Keap1, GST-tagged, biotinylated (equine) (UniProt F6VZG9)
Assay: BLI; biotinylated Keap1 (65 μg/ml) loaded on streptavidin-coated biosensors; various concentrations of Rev or Nrf2 in PBST (PBS, 0.1 mg/ml BSA, 0.002% Tween 20, pH 7.2); room temperature; Octet Red

Row | Substance | Kd
1 | recombinant EIAV Rev, MBP-tagged (natural protein) | 494 nM
2 | recombinant equine Nrf2, His-tagged (natural protein) | 400 nM
